This is an account of results in patent US20090098549, “SELEX AND PHOTOSELEX” (SOMALOGIC, INC., published 2009).

The target of the series is beta-catenin (UniProt P35222 P35222:2-781). Kind of series: photocrosslink returned to full activity without 3' fixed region. Particulars: tags: NHS-PEO4-biotin or His tag (assay used TALON beads); label: 32P. How it is done:
Radiolabeled aptamer (100 pM) was denatured and renatured as described above, with, or without a 100-fold excess of unlabeled 3′ primer. The samples were incubated with or without 10 nM β-catenin protein in SB17 for 30 minutes at 37° C., after which complexes were crosslinked by irradiation with an OAI Hg lamp (Optical Associates, Inc. model 0131-0003-01, 500 W, with 310 nm mirror set) for 10 minutes at 37° C. Samples were mixed with 2× formamide loading buffer, heated for 10 minutes at 70° C., and loaded on a 10% polyacrylamide TBE-urea gel. Phosphorimages were collected with a FUJI FLA-3000 FIG. 7A. Crosslink activity was determined for each sample by quantifying the free aptamer and aptamer:protein signals with FUJI ImageGauge image analysis software and calculating the percent of total DNA crosslinked with target protein and subtracting the percent crosslinked without protein.

Chain of beta-catenin (P35222 2-781, one chain of several): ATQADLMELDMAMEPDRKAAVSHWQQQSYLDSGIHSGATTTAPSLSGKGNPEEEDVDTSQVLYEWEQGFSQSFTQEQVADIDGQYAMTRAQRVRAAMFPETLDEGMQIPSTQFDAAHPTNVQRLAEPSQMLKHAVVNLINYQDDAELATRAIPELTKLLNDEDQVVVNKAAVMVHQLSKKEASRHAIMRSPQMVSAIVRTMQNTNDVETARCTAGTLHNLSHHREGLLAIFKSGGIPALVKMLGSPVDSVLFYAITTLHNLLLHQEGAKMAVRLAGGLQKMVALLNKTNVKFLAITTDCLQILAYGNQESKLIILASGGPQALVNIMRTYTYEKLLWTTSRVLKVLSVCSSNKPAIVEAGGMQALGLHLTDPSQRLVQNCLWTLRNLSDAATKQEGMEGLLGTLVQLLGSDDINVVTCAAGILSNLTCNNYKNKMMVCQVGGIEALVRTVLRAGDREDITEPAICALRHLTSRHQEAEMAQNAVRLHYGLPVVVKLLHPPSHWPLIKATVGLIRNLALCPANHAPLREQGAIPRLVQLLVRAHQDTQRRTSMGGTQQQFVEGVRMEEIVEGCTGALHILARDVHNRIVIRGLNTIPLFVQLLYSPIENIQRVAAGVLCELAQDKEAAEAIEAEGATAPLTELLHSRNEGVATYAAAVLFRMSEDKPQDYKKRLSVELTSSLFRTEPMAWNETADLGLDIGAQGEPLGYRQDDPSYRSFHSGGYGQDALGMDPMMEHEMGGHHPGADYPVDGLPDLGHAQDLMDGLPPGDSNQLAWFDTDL

B1: 2092-68-6 (ssDNA)
DNA: ATATATATGAGTGACCGTCTGCCTGAGCUGCGGUUGAUGAUAUACUUCGCUUUCACUGCUCACAC
modifications: X=ANA-dT, Z=BzdU
Consider B1, for which the binding result is “binds”.
